In publication PMC7725785 (2020):
Where two headings read alike, the source gives them in different places. Where no end group is shown, it is not given here. [ ]: non-standard residue; d: D form.

T1: GST-tagged TRIB3 (human, UniProt Q96RU7 1-358)
T1 chain: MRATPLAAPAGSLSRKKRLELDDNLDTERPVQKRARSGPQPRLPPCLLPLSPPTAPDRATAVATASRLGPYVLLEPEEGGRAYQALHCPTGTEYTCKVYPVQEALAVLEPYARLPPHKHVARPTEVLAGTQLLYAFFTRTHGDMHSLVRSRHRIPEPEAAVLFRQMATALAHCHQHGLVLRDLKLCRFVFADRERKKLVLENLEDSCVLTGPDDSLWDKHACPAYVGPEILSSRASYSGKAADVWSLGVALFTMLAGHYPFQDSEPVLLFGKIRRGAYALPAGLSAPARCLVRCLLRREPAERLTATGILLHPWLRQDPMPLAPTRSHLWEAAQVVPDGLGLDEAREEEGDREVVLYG


Experiments:
Assay in all cases: SPR
[1] = target: T2, MAX protein (SPR) (human, UniProt P61244 1-160)
T2 sequence (P61244 whole entry): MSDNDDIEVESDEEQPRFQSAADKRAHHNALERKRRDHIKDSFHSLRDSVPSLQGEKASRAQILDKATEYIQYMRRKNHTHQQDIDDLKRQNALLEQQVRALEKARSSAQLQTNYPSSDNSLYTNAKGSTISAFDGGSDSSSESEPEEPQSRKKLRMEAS

[2] = target: T2, MAX protein (SPR); remark: listed apart in the source
[3] = target: T1, GST-tagged TRIB3
[4] = target: T1, GST-tagged TRIB3
[5] = target: T1, GST-tagged TRIB3

Row | Binder | koff [1] | Kd [2] | koff [3] | koff [4] | Kd [5]
1 | [dK][dR][dR][dE][dQ][dL][dK][dH][dK][dL][dE][dQ][dL][dR] [CM4 peptide] | 0.0417 s⁻¹ | 12.8 µM | 0.0769 s⁻¹ |  | 
2 | [dQ][dA][dE][dE][dQ][dK][dL][dI][dS][dE][dE][dD][dL][dL][dR] [CM3 peptide] |  |  |  | 0.000434 s⁻¹ | 0.707 µM
3 | [dK][dV][dV][dI][dL][dK][dK][dA][dT][dA][dY][dI][dL][dS][dV] [CM2 peptide] |  |  |  | 0.0166 s⁻¹ | 8.17 µM
4 | [dE][dR][dQ][dR][dR][dN][dE][dL][dK][dR][dS][dF][dF][dA][dL][dR] [CM1 peptide] | 0.0099 s⁻¹ | 0.897 µM |  | 0.00531 s⁻¹ | 3.4 µM
